The values below come from patent publication US20030171557.

In data set [1] the target is GST protein [GST: P08515].
Data set [2] concerns the target GST-IkBα protein [GST: P08515].
Data set [3] concerns the target T1, IkBα C-terminal peptide.
T1 chain: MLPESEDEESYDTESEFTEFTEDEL

Data set [4] addresses casein (Sigma).

Chain of GST protein [GST: P08515] (P08515 whole entry): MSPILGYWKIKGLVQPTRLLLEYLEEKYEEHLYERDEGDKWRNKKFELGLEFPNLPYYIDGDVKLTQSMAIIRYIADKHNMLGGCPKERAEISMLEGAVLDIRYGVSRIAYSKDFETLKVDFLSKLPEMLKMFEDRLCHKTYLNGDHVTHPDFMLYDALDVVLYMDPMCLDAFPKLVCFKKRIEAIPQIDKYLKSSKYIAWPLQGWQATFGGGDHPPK

B1: GST fusion protein with wild VRK1 protein (protein)
chain: MPRVKAAQAGRQSSAKRHLAEQFAVGEIITDMAKKEWKVGLPIGQGGFGCIYLADMNSSESVGSDAPCVVKVEPSDNGPLFTELKFYQRAAKPEQIQKWIRTRKLKYLGVPKYWGSGLHDKNGKSYRFMIMDRFGSDLQKIYEANAKRFSRKTVLQLSLRILDILEYIHEHEYVHGDIKASNLLLNYKNPDQVYLVDYGLAYRYCPEGVHKEYKEDPKRCHDGTIEFTSIDAHNGVAPSRRGDLEILGYCMIQWLTGHLPWEDNLKDPKYVRDSKIRYRENIASLMDKCFPEKNKPGEIAKYMETVKLLDYTEKPLYENLRDILLQGLKAIGSKDDGKLDLSVVENGGLKAKTITKKRKKEIEESKEPGVEDTEWSNTQTEEAIQTRSRTRKRVQK
With B1, the “kinase assay, phosphorylation of substrate ([γ-32P]-ATP, SDS-PAGE, 10 mM Mg)” value is “GST protein was not phosphorylated by VRK1” in data set [1]; “wild VRK1 protein phosphorylates casein and GST-IkBα” in data set [2]; “wild VRK1 protein phosphorylates casein and GST-IkBα” in data set [4]. The “kinase assay, phosphorylation of substrate ([γ-32P]-ATP, SDS-PAGE)” value in data set [3] is recorded as “Arrows indicate ... phosphorylated IkBα C-terminal peptide (“P”)”. The “kinase assay with casein as substrate in the presence of Mg, Mn, Zn or Ca at 2 mM or 10 mM” value in data set [4] is listed as “VRK1 exhibits phosphorylation activity in the presence of all divalent cations except for Zn ... especially strong activity in the presence of Mn”.
